Measurements taken from patent US20200206312A1 (EISAI, published 2020).

Columns and labels:
[1] = molecular target: T1, Recombinant human NRP1 with His Tag (Sino Biological Inc.; Cat #1001-H08H) (human, UniProt O14786-2 22-644); experiment: BLI (Octet Red96), biotinylated VEGF165 on streptavidin sensor, NRP1 in solution
T1 construct: also called Neuropilin 1
T1 sequence (looked up): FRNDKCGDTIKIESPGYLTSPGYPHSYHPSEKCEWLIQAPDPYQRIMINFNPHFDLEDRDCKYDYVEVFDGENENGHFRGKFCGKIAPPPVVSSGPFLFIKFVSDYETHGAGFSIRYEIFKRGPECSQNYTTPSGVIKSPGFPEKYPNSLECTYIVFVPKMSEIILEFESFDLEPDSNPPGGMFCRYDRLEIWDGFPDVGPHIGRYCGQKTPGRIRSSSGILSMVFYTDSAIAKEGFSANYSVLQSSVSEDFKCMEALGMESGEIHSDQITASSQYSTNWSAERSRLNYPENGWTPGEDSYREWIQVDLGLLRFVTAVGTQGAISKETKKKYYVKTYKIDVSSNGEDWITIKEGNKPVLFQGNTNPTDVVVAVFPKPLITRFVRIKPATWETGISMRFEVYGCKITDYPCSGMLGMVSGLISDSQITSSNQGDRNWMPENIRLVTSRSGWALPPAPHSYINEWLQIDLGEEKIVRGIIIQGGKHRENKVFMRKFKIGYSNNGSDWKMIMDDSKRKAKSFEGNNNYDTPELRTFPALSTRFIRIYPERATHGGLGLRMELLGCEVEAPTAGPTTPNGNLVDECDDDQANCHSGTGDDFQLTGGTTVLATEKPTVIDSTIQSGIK

[2] = molecular target: T1, Recombinant human NRP1 with His Tag …; experiment: BLI (Octet Red96), biotinylated VEGF165 on streptavidin sensor, NRP1 in solution; value 1 of 6 in the cell
[3] = molecular target: T1, Recombinant human NRP1 with His Tag …; experiment: BLI (Octet Red96), biotinylated VEGF165 on streptavidin sensor, NRP1 in solution; value 2 of 6 in the cell
[4] = molecular target: T1, Recombinant human NRP1 with His Tag …; experiment: BLI (Octet Red96), biotinylated VEGF165 on streptavidin sensor, NRP1 in solution; value 3 of 6 in the cell
[5] = molecular target: T1, Recombinant human NRP1 with His Tag …; experiment: BLI (Octet Red96), biotinylated VEGF165 on streptavidin sensor, NRP1 in solution; value 4 of 6 in the cell
[6] = molecular target: T1, Recombinant human NRP1 with His Tag …; experiment: BLI (Octet Red96), biotinylated VEGF165 on streptavidin sensor, NRP1 in solution; value 5 of 6 in the cell
[7] = molecular target: T1, Recombinant human NRP1 with His Tag …; experiment: BLI (Octet Red96), biotinylated VEGF165 on streptavidin sensor, NRP1 in solution; value 6 of 6 in the cell

B1: Biotinylated recombinant Human VEGF165 (ACRO Biosystems; Cat # VE5-H8210) (ligand, UniProt P15692-4 27-191, looked up)
chain: APMAEGGGQNHHEVVKFMDVYQRSYCHPIETLVDIFQEYPDEIEYIFKPSCVPLMRCGGCCNDEGLECVPTEESNITMQIMRIKPHQGQHIGEMSFLQHNKCECRPKKDRARQENPCGPCSERRKHLFVQDPQTCKCSCKNTDSRCKARQLELNERTCRCDKPRR
notes: also called biotinylated VEGF
**Q.** How did the Kd [1] turn out when B1 was run?
**A.** 40 to 98 nM

**Q.** What about the Kd [2] of the same binder?
**A.** 43 nM

**Q.** And the Kd [3]?
**A.** 26 nM

**Q.** And the Kd [4]?
**A.** 75 nM

**Q.** And the Kd [5]?
**A.** 98 nM

**Q.** And the Kd [6]?
**A.** 18 nM

**Q.** And the Kd [7]?
**A.** 26 nM
